In test [1] the target is recombinant mouse FGFR2b (mouse) (UniProt P21803). The test is described as follows: ELISA, antibody 1ug/mL. In general terms: ELISA stands for enzyme-linked immunosorbent assay.
In test [2] the target is FGFR1 (acro) (UniProt P11362). The experiment in a line: ELISA, antibody 10 µg/mL.
Test [3] deals with T1, FGFR4 (acro) (UniProt P22455).
T1 sequence (looked up): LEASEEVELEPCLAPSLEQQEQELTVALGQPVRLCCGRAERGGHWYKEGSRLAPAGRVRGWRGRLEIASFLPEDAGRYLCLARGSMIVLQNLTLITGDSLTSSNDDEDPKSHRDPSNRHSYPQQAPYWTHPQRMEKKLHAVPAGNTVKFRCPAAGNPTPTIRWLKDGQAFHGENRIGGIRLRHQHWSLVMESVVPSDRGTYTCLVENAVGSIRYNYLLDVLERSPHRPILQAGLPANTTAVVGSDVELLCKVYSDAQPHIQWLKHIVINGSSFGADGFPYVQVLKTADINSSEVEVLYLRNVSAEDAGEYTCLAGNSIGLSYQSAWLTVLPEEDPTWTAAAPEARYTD
The test is described as follows: ELISA, antibody 10 µg/mL.

The target in test [4] is recombinant mouse FGFR2b (mouse) (UniProt P21803). The test is described as follows: BLI, antibody on AHC2 sensor. In general terms: BLI is a label-free optical method that tracks binding on a fibre tip over time.
The target of test [5] is extracellular domain of FGFR2c protein (Example 1) (UniProt P21802). The test is described as follows: phage ELISA.
For test [6], the target named is extracellular domain of the FGFR2b protein (NP_075259.4) (UniProt P21802). The test is described as follows: phage ELISA.
Test [7] has as its target FGFR2c (acro) (UniProt P21802). The experiment in a line: ELISA, antibody 10 µg/mL.

Substitutions are numbered along the chain they refer to.

extracellular domain of the FGFR2b protein (NP_075259.4), sequence (P21802 other isoform, or with tags, fused parts or gaps): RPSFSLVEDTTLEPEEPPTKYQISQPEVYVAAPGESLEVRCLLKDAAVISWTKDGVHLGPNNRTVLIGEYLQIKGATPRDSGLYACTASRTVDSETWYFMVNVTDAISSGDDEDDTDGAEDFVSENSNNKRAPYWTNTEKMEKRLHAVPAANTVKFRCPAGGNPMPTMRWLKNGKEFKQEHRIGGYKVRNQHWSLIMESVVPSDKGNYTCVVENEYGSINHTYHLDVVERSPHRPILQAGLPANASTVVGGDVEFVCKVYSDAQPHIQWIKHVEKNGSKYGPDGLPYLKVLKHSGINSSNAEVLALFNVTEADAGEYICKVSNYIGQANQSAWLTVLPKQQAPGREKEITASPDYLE
FGFR1 (acro), sequence (P11362 22-376): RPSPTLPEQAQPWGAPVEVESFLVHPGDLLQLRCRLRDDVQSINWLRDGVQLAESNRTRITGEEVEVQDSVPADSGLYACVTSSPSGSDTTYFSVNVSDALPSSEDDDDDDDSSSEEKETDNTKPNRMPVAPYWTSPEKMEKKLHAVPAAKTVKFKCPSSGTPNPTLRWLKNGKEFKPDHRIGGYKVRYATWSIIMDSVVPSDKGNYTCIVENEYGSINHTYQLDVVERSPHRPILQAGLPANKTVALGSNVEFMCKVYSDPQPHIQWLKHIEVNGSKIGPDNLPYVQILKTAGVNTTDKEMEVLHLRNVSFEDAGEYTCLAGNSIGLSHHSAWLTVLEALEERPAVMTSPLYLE
recombinant mouse FGFR2b (mouse), sequence (P21803 22-377): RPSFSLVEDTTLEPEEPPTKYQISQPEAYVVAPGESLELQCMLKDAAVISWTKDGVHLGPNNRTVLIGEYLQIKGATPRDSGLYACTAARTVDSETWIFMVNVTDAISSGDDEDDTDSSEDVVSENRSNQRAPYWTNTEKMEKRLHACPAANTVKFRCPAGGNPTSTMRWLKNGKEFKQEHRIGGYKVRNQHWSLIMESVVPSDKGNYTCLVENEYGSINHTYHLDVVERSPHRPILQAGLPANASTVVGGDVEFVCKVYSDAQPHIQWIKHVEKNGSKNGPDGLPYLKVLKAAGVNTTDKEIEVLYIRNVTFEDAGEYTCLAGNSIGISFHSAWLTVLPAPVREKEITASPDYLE
extracellular domain of FGFR2c protein (Example 1), sequence (P21802 22-377): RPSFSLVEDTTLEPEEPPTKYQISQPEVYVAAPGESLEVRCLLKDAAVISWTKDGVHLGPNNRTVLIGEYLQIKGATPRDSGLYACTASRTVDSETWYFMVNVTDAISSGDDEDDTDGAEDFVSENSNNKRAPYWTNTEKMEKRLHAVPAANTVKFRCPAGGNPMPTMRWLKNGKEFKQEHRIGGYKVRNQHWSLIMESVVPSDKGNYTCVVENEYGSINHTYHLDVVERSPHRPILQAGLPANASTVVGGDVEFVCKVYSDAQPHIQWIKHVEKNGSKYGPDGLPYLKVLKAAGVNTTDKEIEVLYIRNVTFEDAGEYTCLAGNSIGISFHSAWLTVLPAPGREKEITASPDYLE
FGFR2c (acro), sequence (P21802 22-377): as above

B1: 3G10 scFv-Fc (Fc fusion)
chain: EVQLQQSGPELVKPGASVKMSCKASGYTFATYNMHWVKQTTGQGLEWIGAIYPDNGDTFYNRKFKDKATLTADKSSTTAYMQLSSLTSEDSAVYYCARGDFAYWGQGTLVTVSAGGGGSGGGGSGGGGSDVLMTQSPASLSASVGETVTITCGASENIYGALNWYQRKQGKSPQLLIYGATNLADGMSSRFSGSGSGRQYSLKISSLHPDDVATYYCQNVLSTPYTFGGGTKLEMKESKYGPPCPPCPAPEAAGGPSVFLFPPKPKDTLMISRTPEVTCVVVDVSQEDPEVQFNWYVDGVEVHNAKTKPREEQFNSTYRVVSVLTVLHQDWLNGKEYKCKVSNKGLPSSIEKTISKAKGQPREPQVYTLPPSQEEMTKNQVSLTCLVKGFYPSDIAVEWESNGQPENNYKTTPPVLDSDGSFFLYSKLTVDKSRWQEGNVFSCSVMHEALHNHYTQKSLSLSLG
One may read the Kd as a measure of binding affinity in units of concentration. As usually defined, the koff is the rate constant with which the complex falls apart. A word on the kon: it is a measure of how fast the partners come together. As for B1, the OD (450 nm) value in test [1] amounted to 3. Also, the OD (450 nm) value in test [2] is 0.083. This molecule had an OD (450 nm) value in test [3] of 0.175. For the same molecule, in test [4], the dissociation constant Kd was 41.9 nM, the koff is 0.00195 s⁻¹ and the kon was determined as 46600 M⁻¹ s⁻¹.

B2: 3A3 scFv-Fc (Fc fusion)
chain: QVQLQQSGAELVKPGASVKMSCKASGYTFTTYNIHWVRQTPGQGLEWIGLIYPDNGDTSYNQKFKAKATLTADKSSSTAYMHLSSLTSEDSAVYYCARGGFDYWGQGTTLTVSSGGGGSGGGGSGGGGSDIVMTQSHKFMSTSVGDRVSITCKASQDVNTDVSWYQQKPGQSPKLLIYSASYRYTGVPTRFTGSGSGTDFTFTISGVQAEDLADYYCQQHYNTPYTFGGGTRLEIKESKYGPPCPPCPAPEAAGGPSVFLFPPKPKDTLMISRTPEVTCVVVDVSQEDPEVQFNWYVDGVEVHNAKTKPREEQFNSTYRVVSVLTVLHQDWLNGKEYKCKVSNKGLPSSIEKTISKAKGQPREPQVYTLPPSQEEMTKNQVSLTCLVKGFYPSDIAVEWESNGQPENNYKTTPPVLDSDGSFFLYSKLTVDKSRWQEGNVFSCSVMHEALHNHYTQKSLSLSLG
In the case of B2, the OD (450 nm) value in test [1] was determined as 2.63. The same molecule gave an OD (450 nm) value in test [2] of 0.097. Besides, in test [4], the equilibrium dissociation constant (Kd) was determined as 39.6 nM, the off-rate (koff) stood at 0.00122 s⁻¹ and the kon worked out at 30800 M⁻¹ s⁻¹.

B3: 3H9 scFv displayed on phage (scFv)
scFv: EIQLQQSGAELVKPGASVKMSCKASGYTFSFYNMHWVKRTPGQGLEWIGLIYPDNGDTSYNQKFKGKATLTADTSSSTAYMQLSSLTSEDSAVYYCARGGLDYWGQGTTLTVSSGGGGSGGGGSGGGGSDIVLTQSPASLSVSVGETVTITCRASENIYSNLAWYQQKQGKSPQLLVYAATNLADGVPSRFSGSGSGTQYSLKINSLQSEDFGSYYCQHFWGTPYTFGGGTKLELK
As to B3, the values for the OD (450 nm) value in test [5] and in test [6] were 0.073 and 2.22, respectively.

B4: 1A3 scFv-Fc (Fc fusion)
chain: QVQLQQPGAELVKPGASVKMSCKASGYTFASYNLHWVKQTPGQGLEWIGLIYPENGDTSYNQKFKGKATLTADKSSSTAYIQLSSLTSEDSAVYFCARGGFDYWGQGTTLTVSQGGGGSGGGGSGGGGSDIQMTQSPASLSASVGETVTITCGASENIYGALNWYQRKQGKSPQLLIYGATNLADGMSSRFSGSGSGRQYSLKISSLHPDDVATYYCQNVLSTPYTFGGGTKLEIKESKYGPPCPPCPAPEAAGGPSVFLFPPKPKDTLMISRTPEVTCVVVDVSQEDPEVQFNWYVDGVEVHNAKTKPREEQFNSTYRVVSVLTVLHQDWLNGKEYKCKVSNKGLPSSIEKTISKAKGQPREPQVYTLPPSQEEMTKNQVSLTCLVKGFYPSDIAVEWESNGQPENNYKTTPPVLDSDGSFFLYSKLTVDKSRWQEGNVFSCSVMHEALHNHYTQKSLSLSLG
Take B4: the OD (450 nm) value in test [1] was 1.81; in test [2], 0.143; in test [7], 0.134. The Kd in test [4] is 99.8 nM. In addition, the koff in test [4] was found to be 0.0054 s⁻¹. The on-rate constant (kon) in test [4] is 54200 M⁻¹ s⁻¹.

B5: 1G6 scFv-Fc (Fc fusion)
chain: EIQLQQSGAELVKPGASVKMSCKASGYTFRYYNMHWVKRTPGQGLEWIGLIYPDNGDTSYNQKFKGKATLTADTSSSTAYMQLSSLTSEDSAVYYCARGGLDYWGQGTSLTVSSGGGGSGGGGSGGGGSNIVMTQSHKFMSTSVGDRVSITCKASQDVNTDVAWYQQKPGQSPKLLIYSASYRYTGVPTRFTGSGSGTDFTFTISGVQAEDLADYYCQQHYNTPYTFGGGTKLELKESKYGPPCPPCPAPEAAGGPSVFLFPPKPKDTLMISRTPEVTCVVVDVSQEDPEVQFNWYVDGVEVHNAKTKPREEQFNSTYRVVSVLTVLHQDWLNGKEYKCKVSNKGLPSSIEKTISKAKGQPREPQVYTLPPSQEEMTKNQVSLTCLVKGFYPSDIAVEWESNGQPENNYKTTPPVLDSDGSFFLYSKLTVDKSRWQEGNVFSCSVMHEALHNHYTQKSLSLSLG
Turning to B5, the OD (450 nm) value came out at 2.76 in test [1], 0.217 in test [2], 0.176 in test [7] and 0.232 in test [3]. Also, in test [4], the dissociation constant (Kd) came out at 42.2 nM. Also, the koff in test [4] amounted to 0.00128 s⁻¹. For the same molecule, in test [4], the kon was determined as 30400 M⁻¹ s⁻¹.

B6: 3A12 scFv displayed on phage (scFv)
scFv: EVQLQQSGAELVKPGASVKMSCKASGYTFSFYNVHWVRQTPGQGLEWIGLIYPDNGDTSYNQKFKAKATLTADKSSSAAYMQLSSLTSEDSAVYYCARGGFDYWGQGTSLTVSSGGGGSGGGGSGGGGSDIVMTQSHKFMSTSVGDRVNITCKASQDVSTAVAWYQQKPGQSPKLLIYSASYRYSGVPDRFTGSGSGTDFTFTISSVQAEDLAVYYCQQHYSTPYTFGGGTKLEMK
Regarding B6, the OD (450 nm) value in test [5] is 0.1; in test [6], 2.41.

B7: 3E3 scFv-Fc (Fc fusion)
chain: QVQLQQPGAVLVKPGASVRMSCKASGYTFPYYNVHWVKRTPGQGLEWIGLIYPDNGDTSYNQKFTGKATLTADTSSSTAYMQLSSLTSEDSAVYYCARGGLDYWGQGTTLTVSAGGGGSGGGGSGGGGSDVQITQSPASLSASVGETVTITCGASENIYGALNWYQRKQGKSPQLLIYGATNLADGMSSRFSGSGSGRQYSLKISSLHPDDVATYYCQNVLSTPYTFGGGTKLEIKESKYGPPCPPCPAPEAAGGPSVFLFPPKPKDTLMISRTPEVTCVVVDVSQEDPEVQFNWYVDGVEVHNAKTKPREEQFNSTYRVVSVLTVLHQDWLNGKEYKCKVSNKGLPSSIEKTISKAKGQPREPQVYTLPPSQEEMTKNQVSLTCLVKGFYPSDIAVEWESNGQPENNYKTTPPVLDSDGSFFLYSKLTVDKSRWQEGNVFSCSVMHEALHNHYTQKSLSLSLG
Turning to B7, the OD (450 nm) value came to 3.06 in test [1], 0.19 in test [2], 0.199 in test [7] and 0.265 in test [3]. Moreover, the Kd in test [4] was found to be 52.7 nM. Also, the koff in test [4] worked out at 0.00214 s⁻¹. For the same molecule, in test [4], the kon came out at 40500 M⁻¹ s⁻¹.

B8: 3D7 scFv-Fc (Fc fusion)
chain: QVQLQQSGAELVKPGASVKMSCKASGYTFSFYNMHWVKRTPGRGLEWIGLIYPDNGDTSYNQKFKGKATLTADTSSSTAYMQLSSLTSEDSAVYYCARGGLDYWGQGTSLTVSSGGGGSGGGGSGGGGSEIVLTQSPASLAVSLGQRATISCKASQSVDYDGDSYMNWYQQKPGQPPKLLIYGISNRFSGVPDRFSGSGSGTDFTLKISTIKPEDLGMYYCLQGTHQPYTFGGGTKLEIKESKYGPPCPPCPAPEAAGGPSVFLFPPKPKDTLMISRTPEVTCVVVDVSQEDPEVQFNWYVDGVEVHNAKTKPREEQFNSTYRVVSVLTVLHQDWLNGKEYKCKVSNKGLPSSIEKTISKAKGQPREPQVYTLPPSQEEMTKNQVSLTCLVKGFYPSDIAVEWESNGQPENNYKTTPPVLDSDGSFFLYSKLTVDKSRWQEGNVFSCSVMHEALHNHYTQKSLSLSLG
As for B8, the OD (450 nm) value in test [1] worked out at 2.48. Moreover, in test [2], the OD (450 nm) value was 0.192. The OD (450 nm) value in test [3] stood at 0.256. For the same molecule, in test [4], the equilibrium dissociation constant (Kd) worked out at 81.7 nM, the koff came out at 0.00238 s⁻¹ and the association rate constant (kon) was 29100 M⁻¹ s⁻¹.

B9: 3D6 scFv displayed on phage (scFv)
scFv: QVQLQQSGAELVKPGASVKMSCKASGYTFRYYNMHWVKRTPGQGLEWIGLIYPDNGDTSYNQKFKGKATLTADTSSSTAYMQLSSLTSEDSAVYYCARGGLDYWGQGTSLTVSSGGGGSGGGGSGGGGSDIQMTQSPASLSVSVGETVTITCRASENIYSNLAWYQQKQGKSPQLLVYNAKTLADGVPSRFSGSGSGTQYSLKINSLQPEDFGSYYCQHFWSTPFTFGSGTKLELK
Consider B9, for which the OD (450 nm) value in test [5] was 0.037; in test [6], 1.92.

B10: 1C10 scFv displayed on phage (scFv)
scFv: B9 scFv with Q132V, V142A, E156G, Y159H, S160N, N161Y, F225Y, S229G, L235M
Consider B10, for which the results for the OD (450 nm) value in test [5] and in test [6] were 0.068 and 2.55, respectively.

Source of the values: patent EP4714976A1.
